Assay results as given in patent US20240173352A1 (A2 BIOTHERAPEUTICS, published 2024).

Biological target: HLA-A*02 (on target cells) (human)
Experiment: cell-based or functional assay

B1: HA-1(H) peptide (peptide)
peptide: VLHDDLLEA
- EC50 right shift of the NY-ESO-1 TCR by 50 uM HA-1(H) peptide: ~30 fold
